Measurements published in patent US20250296960A1, “PEPTIDE COMPOSITIONS AND METHODS OF USE THEREOF” (priority 2022, published 2025).
Where two headings read alike, the source gives them in different places. Numbered stars: 1 amine (or outer) side, 2 acyl side, 3 side chain; on linkers, the order of the positions; unused ones are H or OH. Square brackets hold non-standard residues; d marks the D form. Primed or numbered codes have the meaning given here. Side chains are listed from the residue outwards. Ends that are not written are not given here. Peptide text beside a SMILES is read from it. * marks the point of attachment. C18 = C18 fatty acid (C16-C22 fatty acids conjugated via γGlu/8-amino-3,6-dioxaoctanoic acid spacers); C18″ = C18 fatty acid moiety (of 2OEG-γGlu-C18, K*); Biotin = O=C1N[C@H]2[C@H](CS[C@H]2CCCCC(=O)*)N1; C18 diacid = O=C(O)CCCCCCCCCCCCCCCCC(=O)*; γGlu = O=C(O)[C@H](CCC(=O)[*:2])N[*:1]; αMeR = C[C@](N)(CCCNC(=N)N)C(=O)O; AEEA = NCCOCCOCC(=O)O; Aib = CC(C)(N)C(=O)O

Columns and labels:
[1] = target: T1, human GLP-1R (Homo sapiens, UniProt P43220); experiment: cAMP assay (HitHunter cAMP) in GLP-1R-expressing CHO-K1 cells (GLP-1R+ cells); type: cell-based; conditions: Table 31
T1 construct: host or cells: CHO-K1
Summary of the method: (§1)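 CHO-K1 cells expressing each receptor were plated overnight, then treated with peptide in cAMP assay buffer for 30 min at 37 °C. cAMP was detected by antibody plus detection solution (1 h) and Solution A (3 h), both at room temperature in the dark. Luminescence was the read-out.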

[2] = target: T2, human GCGR (Homo sapiens, UniProt P47871); experiment: cAMP assay (HitHunter cAMP) in GCGR-expressing CHO-K1 cells (GCGR+ cells); type: cell-based; conditions: Table 31
T2 construct: host or cells: CHO-K1
Summary of the method: as §1

[3] = target: T3, human GIPR (Homo sapiens, UniProt P48546); experiment: cAMP assay (HitHunter cAMP) in GIPR-expressing CHO-K1 cells (GIPR+ cells); type: cell-based; conditions: Table 31
T3 construct: host or cells: CHO-K1
T3 sequence (P48546 22-466): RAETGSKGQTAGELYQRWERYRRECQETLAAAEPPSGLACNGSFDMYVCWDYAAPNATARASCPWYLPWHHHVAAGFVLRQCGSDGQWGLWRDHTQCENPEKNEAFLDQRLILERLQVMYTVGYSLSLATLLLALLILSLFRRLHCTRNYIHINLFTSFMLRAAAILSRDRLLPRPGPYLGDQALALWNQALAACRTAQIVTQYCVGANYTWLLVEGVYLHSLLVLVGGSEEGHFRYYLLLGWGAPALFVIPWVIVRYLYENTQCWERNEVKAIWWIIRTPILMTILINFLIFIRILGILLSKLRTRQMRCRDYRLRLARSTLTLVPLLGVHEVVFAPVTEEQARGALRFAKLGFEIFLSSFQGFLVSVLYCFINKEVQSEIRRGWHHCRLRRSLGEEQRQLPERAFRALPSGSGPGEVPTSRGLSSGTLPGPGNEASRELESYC
Summary of the method: as §1

[4] = In vitro enzymatic stability against FaSSIF/P (pancreatin in FaSSIF, pH 6.5); type: in vitro ADME; conditions: simulated gi fluid, pH 6.5, Half-life (min)
Method: This study was conducted to determine the enzymatic stability of SEQ ID NOs. 77, 86, 87, 89, 90, and 91 after biotinylation in artificial intestinal environment. The test samples were prepared by mixing stock solutions of peptide and pancreatin dissolved in FaSSIF solution (pH 6.5) in a weight ratio of 25:1. The test samples were incubated at 37° C. for 120 min. The sampling from test samples was proceeded at the predetermined time points (10, 30, 60, and 120 min) and stopped by 10% TFA solution.
Analytical HPLC was performed to determine the remaining amount on an ACQUITY Premier system (Waters, USA) with an ACQUITY CSH C18 column (Waters, USA) at 35° C. using 0.1% TFA in water and acetonitrile. The remaining amount was determined as a percentage of the peak area at the sampling time point relative to the peak area of the initial sample.
For the stability against FaSSIF/P, the test samples were prepared by mixing stock solutions of peptide and pancreatin dissolved in FaSSIF solution (pH 6.5) in a weight ratio of 19:1. The test samples were incubated at 37° C. for 120 min. The sampling from test samples was proceeded at the predetermined time points (10, 30, 60, and 120 min) and stopped by 10% TFA solution.

[5] = target: T4, human GLP-1 receptor (GLP-1R), expressed on CHO-K1 cells (human, UniProt P43220 24-463); experiment: cell-based or functional assay
[6] = target: T5, human glucagon receptor (GCGR), expressed on CHO-K1 cells (human, UniProt P47871 26-477); experiment: cell-based or functional assay
[7] = target: T6, human glucose-dependent insulinotropic polypeptide receptor (GIPR), expressed on CHO-K1 cells (human, UniProt P48546 22-466); experiment: cell-based or functional assay
T6 sequence (looked up): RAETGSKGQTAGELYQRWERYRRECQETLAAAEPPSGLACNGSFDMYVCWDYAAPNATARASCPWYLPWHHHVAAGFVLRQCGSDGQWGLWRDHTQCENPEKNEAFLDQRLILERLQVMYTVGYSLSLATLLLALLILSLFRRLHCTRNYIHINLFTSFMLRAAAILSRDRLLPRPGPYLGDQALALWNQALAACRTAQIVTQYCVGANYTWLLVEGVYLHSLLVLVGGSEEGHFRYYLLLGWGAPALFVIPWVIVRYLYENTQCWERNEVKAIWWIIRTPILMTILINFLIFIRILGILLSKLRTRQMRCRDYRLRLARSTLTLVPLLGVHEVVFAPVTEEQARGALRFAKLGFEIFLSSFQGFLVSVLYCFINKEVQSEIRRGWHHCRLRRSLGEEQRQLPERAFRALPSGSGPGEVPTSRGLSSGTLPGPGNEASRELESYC

[8] = target: T4, human GLP-1 receptor (GLP-1R), …; experiment: cell-based or functional assay; remark: listed apart in the source
[9] = target: T5, human glucagon receptor (GCGR), …; experiment: cell-based or functional assay; remark: listed apart in the source
[10] = target: T6, human glucose-dependent insulinotropic …; experiment: cell-based or functional assay; remark: listed apart in the source
[11] = target: T4, human GLP-1 receptor (GLP-1R), …; experiment: cell-based or functional assay; remark: listed apart in the source
[12] = target: T5, human glucagon receptor (GCGR), …; experiment: cell-based or functional assay; remark: listed apart in the source
[13] = target: T6, human glucose-dependent insulinotropic …; experiment: cell-based or functional assay; remark: listed apart in the source
[14] = target: T4, human GLP-1 receptor (GLP-1R), …; experiment: cell-based or functional assay; remark: listed apart in the source
[15] = target: T5, human glucagon receptor (GCGR), …; experiment: cell-based or functional assay; remark: listed apart in the source
[16] = target: T6, human glucose-dependent insulinotropic …; experiment: cell-based or functional assay; remark: listed apart in the source

T5 sequence (P47871 26-477): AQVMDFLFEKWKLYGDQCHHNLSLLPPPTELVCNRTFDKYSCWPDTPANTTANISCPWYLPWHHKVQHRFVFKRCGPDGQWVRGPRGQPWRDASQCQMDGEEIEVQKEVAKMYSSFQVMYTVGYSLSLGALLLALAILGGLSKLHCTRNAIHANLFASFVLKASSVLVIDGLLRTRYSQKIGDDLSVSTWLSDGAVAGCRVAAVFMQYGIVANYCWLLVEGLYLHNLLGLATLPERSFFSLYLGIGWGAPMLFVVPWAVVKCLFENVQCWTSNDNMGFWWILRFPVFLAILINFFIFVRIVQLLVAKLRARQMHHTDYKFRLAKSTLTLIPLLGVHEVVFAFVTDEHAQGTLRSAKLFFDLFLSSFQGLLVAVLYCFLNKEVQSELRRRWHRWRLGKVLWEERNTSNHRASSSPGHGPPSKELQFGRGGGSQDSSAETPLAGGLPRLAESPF
T1 sequence (P43220 24-463): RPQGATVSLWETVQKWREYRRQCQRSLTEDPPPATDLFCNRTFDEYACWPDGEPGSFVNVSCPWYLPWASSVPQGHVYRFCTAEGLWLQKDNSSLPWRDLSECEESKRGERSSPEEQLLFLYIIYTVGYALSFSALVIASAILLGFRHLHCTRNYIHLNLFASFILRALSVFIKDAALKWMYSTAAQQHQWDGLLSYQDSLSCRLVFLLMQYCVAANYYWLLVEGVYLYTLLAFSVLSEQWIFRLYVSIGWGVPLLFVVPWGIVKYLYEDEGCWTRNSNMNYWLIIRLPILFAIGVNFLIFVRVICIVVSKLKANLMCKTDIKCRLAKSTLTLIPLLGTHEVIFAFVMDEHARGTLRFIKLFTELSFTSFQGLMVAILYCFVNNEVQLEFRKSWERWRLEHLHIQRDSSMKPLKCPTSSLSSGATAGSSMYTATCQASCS
T2 sequence (P47871 26-477): as the sequence (P47871 26-477) above

Molecule: CSCC[C@H](NC(=O)[C@H](CCCCNC(=O)CCCC[C@@H]1SC[C@@H]2NC(=O)N[C@@H]21)NC(=O)[C@H](Cc1ccc(O)cc1)NC(=O)[C@H](CC(=O)O)NC(=O)[C@H](CC(C)C)NC(=O)[C@H](CC(C)C)NC(=O)[C@H](CCCCNC(=O)COCCOCCNC(=O)COCCOCCNC(=O)CC[C@H](NC(=O)CCCCCCCCCCCCCCCCC(=O)O)C(=O)O)NC(=O)[C@H](CO)NC(=O)[C@H](Cc1ccc(O)cc1)NC(=O)[C@H](CC(=O)O)NC(=O)[C@H](CO)NC(=O)[C@@H](NC(=O)[C@H](Cc1ccccc1)NC(=O)[C@@H](NC(=O)CNC(=O)[C@H](CCC(N)=O)NC(=O)C(C)(C)NC(=O)[C@@H](N)Cc1ccc(O)cc1)[C@@H](C)O)[C@@H](C)O)C(=O)N[C@@H](CCC(N)=O)C(=O)NC(C)(C)C(=O)N[C@@H](CC(=O)O)C(=O)N[C@@H](Cc1ccccc1)C(=O)N[C@H](C(=O)N[C@@H](CCC(N)=O)C(=O)N[C@@H](Cc1c[nH]c2ccccc12)C(=O)N[C@@H](CC(C)C)C(=O)N[C@@H](CC(C)C)C(=O)N[C@@H](CCC(=O)O)C(=O)NCC(=O)NCC(=O)N1CCC[C@H]1C(=O)N[C@@H](CO)C(=O)N[C@@H](CO)C(=O)NCC(=O)N[C@@H](C)C(=O)N1CCC[C@H]1C(=O)N1CCC[C@H]1C(=O)N1CCC[C@H]1C(=O)N[C@@H](CO)C(N)=O)C(C)C [compound 91] (H-Y[Aib]QGTFTSDYSK([AEEA-AEEA-γGlu-C18 diacid])LLDYK(Biotin)MQ[Aib]DFVQWLLEGGPSSGAPPPS-NH2; N-terminus and C-terminus assumed)
- Ratio vs. GLP-1R, GLP-1R [1]: 100
- Relative % to native ligand, GLP-1R [1]: 19%
- Ratio vs. GLP-1R, GCGR [2]: 135
- Relative % to native ligand, GCGR [2]: 26%
- Ratio vs. GLP-1R, GIPR [3]: 970
- Relative % to native ligand, GIPR [3]: 184%
- half-life [4]: 33.3 min

Molecule: Y[Aib]QGTFTSDYSK([AEEA-AEEA-γGlu-C18″])LLDYMMQ[αMeR]DFVQWLLEGGPSSGAPPPS-NH2 [SEQ ID NO. 101]
- Ratio vs. GLP-1R [5]: 100
- Relative % to native ligand [5]: 722%
- Ratio vs. GLP-1R [6]: 12
- Relative % to native ligand [6]: 89%
- Ratio vs. GLP-1R [7]: 65
- Relative % to native ligand [7]: 472%

Molecule: Y[Aib]QGTFTSDYSK([AEEA-AEEA-γGlu-C18″])LLDYMMQQDFVQWLLEGGPSSGAPPPS-NH2 [SEQ ID NO. 100]
- Ratio vs. GLP-1R [5]: 100
- Relative % to native ligand [5]: 54%
- Ratio vs. GLP-1R [6]: 56
- Relative % to native ligand [6]: 30%
- Ratio vs. GLP-1R [7]: 103
- Relative % to native ligand [7]: 55%

Molecule: Y[Aib]QGTFTSDYSK([AEEA-AEEA-γGlu-C18])LLDYMMQHDFVQWLLEGGPSSGAPPPS-NH2 [SEQ ID NO. 99]
- Ratio vs. GLP-1R [5]: 100
- Relative % to native ligand [5]: 35%
- Ratio vs. GLP-1R [6]: 80
- Relative % to native ligand [6]: 28%
- Ratio vs. GLP-1R [7]: 3240
- Relative % to native ligand [7]: 1130%

Molecule: Y[Aib]QGTFTSDYSK([AEEA-AEEA-γGlu-C18″])LLDYMMQRDFVQWLLEGGPSSGAPPPS-NH2 [Peptide No. 5-3D]
- Relative % to native ligand [8]: 119%
- Relative % to native ligand [9]: 11%
- Relative % to native ligand [10]: 1050%
- Ratio vs. GLP-1R [11]: 100
- Ratio vs. GLP-1R [12]: 9
- Ratio vs. GLP-1R [13]: 880
- Relative % to non-lipidated peptide [14]: 19%
- Relative % to non-lipidated peptide [15]: 1%
- Relative % to non-lipidated peptide [16]: 15%
- Ratio vs. GLP-1R [5]: 100
- Relative % to native ligand [5]: 219%
- Ratio vs. GLP-1R [6]: 26
- Relative % to native ligand [6]: 56%
- Ratio vs. GLP-1R [7]: 105
- Relative % to native ligand [7]: 230%
